T1: EGFR L858R peptide on HLA-A*33:03 (human)
T1 peptide: HVKITDFGR

T2: EGFR L858R peptide on HLA-A*33:01 (human)
T2 peptide: HVKITDFGR

B1: EGFRA33 TCRA33-37-3 (TCR, V domains shown)
Valpha: AQKITQTQPGMFVQEKEAVTLDCTYDTSDQSYGLFWYKQPSSGEMIFLIYQGSYDEQNATEGRYSLNFQKARKSANLVISASQLGDSAMYFCAMREVFGNEKLTFGTGTRLTIIP
Vbeta: EEVAQTPKHLVRGEGQKAKLYCAPIKGHSYVFWYQQVLKNEFKFLISFQNENVFDETGMPKGRFSAKCLPNSPCSLEIQATKLEDSAVYFCASSHRSWKGGDTQPQHFGDGTRLSIL
B2: EGFRA33 TCRA33-37-4 (TCR, V domains shown)
Valpha: AQKITQTQPGMFVQEKEAVTLDCTYDTSDPSYGLFWYKQPSSGEMIFLIYQGSYDQQNATEGRYSLNFQKARKSANLVISASQLGDSAMYFCAMRSGHLSNFGNEKLTFGTGTRLTIIP
Vbeta: B1 Vbeta
B3: EGFRA33 TCR33-32L (TCR, V domains shown)
Valpha: not shown
Vbeta: GVIQSPRHEVTEMGQEVTLRCKPISGHNSLFWYRQTMMRGLELLIYFNNNVPIDDSGMPEDRFSAKMPNASFSTLKIQPSEPRDSAVYFCASRAGTGEVNEQFFGPGTRLTVL
B4: EGFRA33 TCRA33-32H (TCR, V domains shown)
Valpha: QKITQTQPGMFVQEKEAVTLDCTYDTSDQSYGLFWYKQPSSGEMIFLIYQGSYDEQNATEGRYSLNFQKARKSANLVISASQLGDSAMYFCAMREVFGNEKLTFGTGTRLTIIP
Vbeta: EEVAQTPKHLVRGEGQKAKLYCAPIKGHSYVFWYQQVLKNEFKFLISFQNENVFDETGMPKERFSAKCLPNSPCSLEIQATKLEDSAVYFCASSPPPSNTYNEQFFGPGTRLTVL

How the values were obtained:
[1] = target: T1, EGFR L858R peptide on HLA-A*33:03; experiment: multimer staining
[2] = target: T2, EGFR L858R peptide on HLA-A*33:01; experiment: killing

| Binder | binding result [1] | binding result [2] |
| --- | --- | --- |
| B1 | recognises | – |
| B2 | recognises | – |
| B3 | recognises | – |
| B4 | recognises | recognises |
